In patent US20100015126A1, “Methods of Binding of Cross-Beta Structures By Chaperones” (priority 2006, published 2010):

Biological target: T1, human BiP (Homo sapiens, UniProt P11021)
T1 construct: The human BiP gene except the signal peptide encoding region was obtained from Geneart (Germany); linker […]; made in house; host or cells: HEK 293E cells, transient transfection, PABC674 vector; secreted into the medium
Test: ELISA: binding of BiP-FLAG-His to immobilized (misfolded) protein ligands
Details: ligands coated at 5 μg/ml; 6BB peptides and oxLDL 50 μg/ml
Description: Enzyme Linked Immunosorbent Assay for Testing of Chaperone Binding to Misfolded Proteins
Binding of chaperones to immobilized (misfolded) protein ligands was determined using an enzyme linked immuno sorbent assay (ELISA) approach. For this purpose 50 μl/well of potential ligands at indicated concentrations or coat buffer only for control and background measurement purposes, were coated overnight at 4° C. or coated for 1 h at room temperature, with motion, in 50 mM NaHCO3 pH 9.6 (coat buffer). In general, ligands were coated at 5 μg/ml, unless stated otherwise. For example, BiP binding peptides 6BB# and oxLDL were coated at 50 μg/ml. Native haemoglobin (Sigma-Aldrich, H7379), albumin, IgIV Gammagard and ovalbumin controls were prepared from lyophilized stocks. The controls were prepared by dissolving lyophilized proteins at 1 mg/ml in PBS upon resuspending by pipetting, followed by a 30 minutes period at the roller device, at room temperature. The protein solutions were centrifuged for 10 minutes at 16,000*g and diluted in coat buffer. […] After 5 washes with wash buffer followed by two washes with PBS, binding of antibodies was assessed. […] Plates were read at 450 nm. Triplicates were averaged and standard deviations calculated. […] Subsequently, sub-optimal concentrations of chaperones for binding to misfolded protein ligands are determined, and these concentrations are used for inhibition studies. […]

T1 sequence (P11021 19-654): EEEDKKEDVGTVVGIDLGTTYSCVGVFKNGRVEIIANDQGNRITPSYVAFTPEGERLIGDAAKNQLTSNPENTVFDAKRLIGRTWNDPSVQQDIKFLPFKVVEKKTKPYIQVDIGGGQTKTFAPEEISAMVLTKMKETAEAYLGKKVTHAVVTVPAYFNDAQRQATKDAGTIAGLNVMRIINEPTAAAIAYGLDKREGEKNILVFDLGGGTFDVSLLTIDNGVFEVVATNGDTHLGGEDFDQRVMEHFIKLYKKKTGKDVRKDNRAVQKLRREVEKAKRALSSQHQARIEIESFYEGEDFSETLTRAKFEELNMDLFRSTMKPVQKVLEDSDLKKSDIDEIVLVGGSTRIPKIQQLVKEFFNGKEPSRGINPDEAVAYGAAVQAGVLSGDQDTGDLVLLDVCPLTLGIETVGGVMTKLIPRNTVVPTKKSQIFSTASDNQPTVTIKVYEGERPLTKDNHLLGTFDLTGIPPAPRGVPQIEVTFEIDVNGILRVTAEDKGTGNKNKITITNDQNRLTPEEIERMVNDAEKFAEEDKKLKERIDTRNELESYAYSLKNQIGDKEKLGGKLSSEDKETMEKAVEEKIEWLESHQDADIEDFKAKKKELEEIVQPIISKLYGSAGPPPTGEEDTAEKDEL

- Binding of concentration series of BiP to coated ligand: has been established
B1: dOVA standard: heat-denatured chicken ovalbumin (protein)
chain: GSIGAASMEFCFDVFKELKVHHANENIFYCPIAIMSALAMVYLGAKDSTRTQINKVVRFDKLPGFGDSIEAQCGTSVNVHSSLRDILNQITKPNDVYSFSLASRLYAEERYPILPEYLQCVKELYRGGLEPINFQTAADQARELINSWVESQTNGIIRNVLQPSSVDSQTAMVLVNAIVFKGLWEKAFKDEDTQAMPFRVTEQESKPVQMMYQIGLFRVASMASEKMKILELPFASGTMSMLVLLPDEVSGLEQLESIINFEKLTEWTSSNVMEERKIKVYLPRMKMEEKYNLTSVLMAMGITDVFSSSANLSGISSAESLKISQAVHAAHAEINEAGREVVGSAEAGVDAASVSEEFRADHPFLFCIKHIATNAVLFFGRCVSP
